# The supplement of paper PMC7125110
# ± gives the standard error. Fewer inactive variants are shown than the library holds.
# B1: glmS ribozyme (parent)
# chain: AUAAAAGCGCCAGAACUACAGAAAUGUAGUUGACGAGGAGGAGGUUUAUCGAAUUUUCGGCGGAUGCCUCCAAA
# How the values were obtained:
# Details in all cases: with glucosamine-6-phosphate
# glucosamine-6-phosphate [1] = variants of: B1; assay: self-cleavage kobs at 40 uM GlcN6P; higher = faster cleavage; RNA array
# In short: (§1)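 Sequenced MiSeq chips were the platform: E. coli RNA polymerase transcribed barcoded ribozyme variants on them in situ, and a hybridised Cy3 probe tracked these at 37 °C. After glucosamine-6-phosphate (40 μM to 10 mM) in HEPES/KCl/Mg(OAc)2 buffer was flowed in, tiles were imaged over ~14 h. Signals normalised to baseline and to non-cleaving reference variants were reduced to per-tile medians and fit to one- or two-exponential decays to obtain kobs. kcat and KM were derived through weighted Michaelis–Menten fits across concentrations.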
# glucosamine-6-phosphate [2] = variants of: B1; assay: self-cleavage kobs at 160 uM GlcN6P; higher = faster cleavage; RNA array
# In short: as §1
# glucosamine-6-phosphate [3] = variants of: B1; assay: self-cleavage kobs at 640 uM GlcN6P; higher = faster cleavage; RNA array
# In short: as §1
# glucosamine-6-phosphate [4] = variants of: B1; assay: self-cleavage kobs at 2500 uM GlcN6P; higher = faster cleavage; RNA array
# In short: as §1
# glucosamine-6-phosphate [5] = variants of: B1; assay: self-cleavage kobs at 10000 uM GlcN6P; higher = faster cleavage; RNA array
# In short: as §1
Variant,self-cleavage kobs at 40 uM GlcN6P (glucosamine-6-phosphate [1]),self-cleavage kobs at 160 uM GlcN6P (glucosamine-6-phosphate [2]),self-cleavage kobs at 640 uM GlcN6P (glucosamine-6-phosphate [3]),self-cleavage kobs at 2500 uM GlcN6P (glucosamine-6-phosphate [4]),self-cleavage kobs at 10000 uM GlcN6P (glucosamine-6-phosphate [5])
G7U A15G,< 1e-05 s⁻¹,< 1e-05 s⁻¹,< 1e-05 s⁻¹,< 1e-05 s⁻¹,< 1e-05 s⁻¹
C8U U30A G62A U65A C71U,< 1e-05 s⁻¹,–,–,–,–
C8A G38A,< 1e-05 s⁻¹,< 1e-05 s⁻¹,< 1e-05 s⁻¹,< 1e-05 s⁻¹,< 1e-05 s⁻¹
C16G U31C U45C,< 1e-05 s⁻¹,–,–,–,–
A6G C58A C67G,0.000658 ± 0.00021 s⁻¹,–,–,–,0.000123 ± 3.5e-05 s⁻¹
C10U A36G C71G,< 1e-05 s⁻¹,–,–,–,< 1e-05 s⁻¹
U31C U49A A64U,< 1e-05 s⁻¹,–,–,–,< 1e-05 s⁻¹
G7C G43U,< 1e-05 s⁻¹,< 1e-05 s⁻¹,< 1e-05 s⁻¹,–,< 1e-05 s⁻¹
A12C A24U A52C C67A,< 1e-05 s⁻¹,–,–,–,–
C10G G41C,< 1e-05 s⁻¹,< 1e-05 s⁻¹,< 1e-05 s⁻¹,< 1e-05 s⁻¹,< 1e-05 s⁻¹
C58A G62C,< 1e-05 s⁻¹,< 1e-05 s⁻¹,< 1e-05 s⁻¹,< 1e-05 s⁻¹,–
G60C A64G,< 1e-05 s⁻¹,< 1e-05 s⁻¹,< 1e-05 s⁻¹,< 1e-05 s⁻¹,< 1e-05 s⁻¹
C8G U47A A48C C70G,< 1e-05 s⁻¹,< 1e-05 s⁻¹,< 1e-05 s⁻¹,–,< 1e-05 s⁻¹
A12G G37C,< 1e-05 s⁻¹,–,< 1e-05 s⁻¹,–,< 1e-05 s⁻¹
A42G U49C,< 1e-05 s⁻¹,< 1e-05 s⁻¹,< 1e-05 s⁻¹,< 1e-05 s⁻¹,< 1e-05 s⁻¹
U54A C67U,0.000285 ± 9.7e-05 s⁻¹,0.000312 ± 9.1e-05 s⁻¹,0.00116 ± 0.00032 s⁻¹,0.00976 ± 0.0027 s⁻¹,0.00584 ± 0.0013 s⁻¹
G9A U56G,< 1e-05 s⁻¹,< 1e-05 s⁻¹,–,–,–
G7U C34A,< 1e-05 s⁻¹,< 1e-05 s⁻¹,< 1e-05 s⁻¹,–,< 1e-05 s⁻¹
U31G C61G U65C,< 1e-05 s⁻¹,–,–,–,–
G9A U46G G62A,< 1e-05 s⁻¹,–,–,< 1e-05 s⁻¹,–
A33C U55C U57C,< 1e-05 s⁻¹,–,–,–,< 1e-05 s⁻¹
C34G G40C,< 1e-05 s⁻¹,–,< 1e-05 s⁻¹,–,< 1e-05 s⁻¹
G13U G43A C50A C61U C68U,< 1e-05 s⁻¹,–,–,–,–
C10U C11U U56G G62U,< 1e-05 s⁻¹,–,–,–,< 1e-05 s⁻¹
G9U C68U C70U,< 1e-05 s⁻¹,< 1e-05 s⁻¹,< 1e-05 s⁻¹,< 1e-05 s⁻¹,< 1e-05 s⁻¹

Variant,self-cleavage kobs at 40 uM GlcN6P (glucosamine-6-phosphate [1]),self-cleavage kobs at 160 uM GlcN6P (glucosamine-6-phosphate [2]),self-cleavage kobs at 640 uM GlcN6P (glucosamine-6-phosphate [3]),self-cleavage kobs at 2500 uM GlcN6P (glucosamine-6-phosphate [4]),self-cleavage kobs at 10000 uM GlcN6P (glucosamine-6-phosphate [5])
C50G G59C C67G,0.00018 ± 5.4e-05 s⁻¹,–,–,–,0.000119 ± 2.8e-05 s⁻¹
A15U A39U U46A,< 1e-05 s⁻¹,–,–,–,–
A6C G32C U49G,< 1e-05 s⁻¹,–,–,–,< 1e-05 s⁻¹
U49G G66C,< 1e-05 s⁻¹,–,–,< 1e-05 s⁻¹,–
G29A G43C,< 1e-05 s⁻¹,< 1e-05 s⁻¹,< 1e-05 s⁻¹,–,< 1e-05 s⁻¹
G32C A52C G63A,< 1e-05 s⁻¹,–,–,–,–
C11G G38U,< 1e-05 s⁻¹,< 1e-05 s⁻¹,< 1e-05 s⁻¹,–,< 1e-05 s⁻¹
A15U U47C C61U,< 1e-05 s⁻¹,–,–,–,< 1e-05 s⁻¹
A15G G38U U47A C68G,9.09e-05 ± 3.3e-05 s⁻¹,–,–,–,–
A14G G41A C67U,< 1e-05 s⁻¹,–,–,–,–
A15G G37C,< 1e-05 s⁻¹,–,–,–,4.76e-05 ± 6.4e-06 s⁻¹
G13A U46C G59A,< 1e-05 s⁻¹,–,–,–,–
U31A G44C,< 1e-05 s⁻¹,–,–,–,6.05e-05 ± 1.8e-05 s⁻¹
A6C G63C,< 1e-05 s⁻¹,–,< 1e-05 s⁻¹,–,< 1e-05 s⁻¹
G38U A52C,< 1e-05 s⁻¹,–,< 1e-05 s⁻¹,–,< 1e-05 s⁻¹
G29C C68A,< 1e-05 s⁻¹,–,–,–,–
U47G A64C,< 1e-05 s⁻¹,–,–,–,–
A42C A52U C61U,< 1e-05 s⁻¹,–,< 1e-05 s⁻¹,–,–
A6G U31C U55G,< 1e-05 s⁻¹,–,–,4.23e-05 ± 1.7e-05 s⁻¹,5.16e-05 ± 1.9e-05 s⁻¹
A33G G41A,< 1e-05 s⁻¹,< 1e-05 s⁻¹,–,–,< 1e-05 s⁻¹
C10U G37C G44U U65C,< 1e-05 s⁻¹,< 1e-05 s⁻¹,< 1e-05 s⁻¹,< 1e-05 s⁻¹,–
U47A A53G U54G,0.000659 ± 0.00016 s⁻¹,–,–,–,0.0222 ± 0.0081 s⁻¹
C8A A14G,< 1e-05 s⁻¹,–,< 1e-05 s⁻¹,–,–
G40A U46G,4.29e-05 ± 1.2e-05 s⁻¹,–,–,0.000841 ± 0.00023 s⁻¹,0.00152 ± 0.00029 s⁻¹
G29A G35C A39G G41U G43C G62A A64U,< 1e-05 s⁻¹,–,< 1e-05 s⁻¹,< 1e-05 s⁻¹,< 1e-05 s⁻¹
